The target of this test is T1, MBP–TIP150 (maltose-binding protein–tracking protein 150) (human, UniProt Q5JR59 1-1369).
T1 sequence (looked up): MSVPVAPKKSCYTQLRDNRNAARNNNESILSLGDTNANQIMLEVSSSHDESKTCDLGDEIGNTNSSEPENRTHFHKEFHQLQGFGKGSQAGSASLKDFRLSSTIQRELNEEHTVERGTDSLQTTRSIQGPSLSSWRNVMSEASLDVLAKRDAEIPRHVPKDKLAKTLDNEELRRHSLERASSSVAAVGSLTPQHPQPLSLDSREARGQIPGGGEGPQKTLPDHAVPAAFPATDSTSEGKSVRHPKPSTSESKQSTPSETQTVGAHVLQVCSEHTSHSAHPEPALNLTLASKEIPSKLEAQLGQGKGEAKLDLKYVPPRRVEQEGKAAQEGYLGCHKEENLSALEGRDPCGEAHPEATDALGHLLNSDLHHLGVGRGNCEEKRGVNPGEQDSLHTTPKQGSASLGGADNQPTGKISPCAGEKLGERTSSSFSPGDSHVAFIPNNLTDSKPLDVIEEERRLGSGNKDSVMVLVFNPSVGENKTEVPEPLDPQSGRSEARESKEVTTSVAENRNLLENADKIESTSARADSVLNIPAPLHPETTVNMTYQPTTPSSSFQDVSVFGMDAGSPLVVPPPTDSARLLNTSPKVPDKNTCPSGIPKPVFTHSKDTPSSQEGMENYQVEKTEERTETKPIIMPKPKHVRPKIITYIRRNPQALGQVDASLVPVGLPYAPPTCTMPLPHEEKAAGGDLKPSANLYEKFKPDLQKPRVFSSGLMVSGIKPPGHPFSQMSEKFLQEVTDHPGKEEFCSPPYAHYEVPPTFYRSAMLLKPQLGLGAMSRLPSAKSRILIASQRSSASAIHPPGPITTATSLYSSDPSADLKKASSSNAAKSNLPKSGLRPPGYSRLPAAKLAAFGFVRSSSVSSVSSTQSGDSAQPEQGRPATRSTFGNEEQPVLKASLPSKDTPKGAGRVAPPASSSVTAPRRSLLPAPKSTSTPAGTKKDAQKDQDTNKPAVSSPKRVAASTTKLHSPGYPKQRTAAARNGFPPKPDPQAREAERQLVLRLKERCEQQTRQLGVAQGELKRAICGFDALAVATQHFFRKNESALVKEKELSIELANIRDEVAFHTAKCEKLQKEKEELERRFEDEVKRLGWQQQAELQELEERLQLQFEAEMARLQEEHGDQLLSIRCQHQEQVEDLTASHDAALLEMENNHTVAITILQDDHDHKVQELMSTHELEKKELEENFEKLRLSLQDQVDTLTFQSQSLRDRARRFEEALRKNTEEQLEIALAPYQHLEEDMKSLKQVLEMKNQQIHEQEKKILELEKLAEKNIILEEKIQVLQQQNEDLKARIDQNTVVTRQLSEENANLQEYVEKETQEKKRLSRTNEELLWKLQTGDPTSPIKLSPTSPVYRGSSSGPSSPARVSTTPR
Nature of the test: pull-down.

Results on one molecule are retold here after paper PMC2699393 (EMBO Reports, 2009).

B1: GST–EB1 (glutathione-S-transferase–end-binding protein 1) (natural protein, human, UniProt Q15691 1-268, looked up)
chain: MAVNVYSTSVTSDNLSRHDMLAWINESLQLNLTKIEQLCSGAAYCQFMDMLFPGSIALKKVKFQAKLEHEYIQNFKILQAGFKRMGVDKIIPVDKLVKGKFQDNFEFVQWFKKFFDANYDGKDYDPVAARQGQETAVAPSLVAPALNKPKKPLTSSSAAPQRPISTQRTAAAPKAGPGVVRKNPGVGNGDDEAAELMQQVNVLKLTVEDLEKERDFYFGKLRNIELICQENEGENDPVLQRIVDILYATDEGFVIPDEGGPQEEQEEY
Regarding B1, the binding result is listed as “binds”.
